This note sets out measurements from patent publication US20050004025A1.

The experiment concerns the target recombinant human a7 nicotinic acetylcholine receptor expressed in Xenopus oocytes (human) (UniProt P36544). The experiment in a line: cell-based or functional assay.

Sequence of recombinant human a7 nicotinic acetylcholine receptor expressed in Xenopus oocytes (human) (P36544 23-502): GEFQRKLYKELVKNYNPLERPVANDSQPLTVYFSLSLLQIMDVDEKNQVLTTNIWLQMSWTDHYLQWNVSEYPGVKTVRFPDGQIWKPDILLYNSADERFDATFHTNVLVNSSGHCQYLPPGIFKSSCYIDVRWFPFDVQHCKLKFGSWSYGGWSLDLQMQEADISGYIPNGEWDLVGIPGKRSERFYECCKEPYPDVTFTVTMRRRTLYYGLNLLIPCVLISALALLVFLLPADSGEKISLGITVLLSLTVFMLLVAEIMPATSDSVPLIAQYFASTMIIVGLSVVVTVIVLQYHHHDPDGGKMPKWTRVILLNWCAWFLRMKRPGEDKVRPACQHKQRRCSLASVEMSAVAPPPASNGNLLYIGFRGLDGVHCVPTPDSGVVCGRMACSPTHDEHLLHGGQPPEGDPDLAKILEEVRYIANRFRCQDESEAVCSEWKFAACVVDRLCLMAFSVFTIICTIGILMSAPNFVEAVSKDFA

As to “recombinant SLURP-1 with C-terminal myc tag and His6 tag (highly purified SLURP-1) (from UniProt P55000 23-103) (ligand)”, the EC50 of acetylcholine on the receptor after 2.5 min exposure to 200 pM SLURP-1 (FIG. 5C; control 178 µM; n=6 for each data point) came out at 68 µM; the EC50 of acetylcholine on the receptor after SLURP-1 treatment (FIG. 5B; control 175 µM) was 68 µM; the increase of the amplitude of acetylcholine-evoked macroscopic currents at 200 pM SLURP-1, compared with control (two-electrode voltage clamp, oocytes; n=6) came to 421%; the increase of the amplitude of acetylcholine-evoked macroscopic currents at 20 nM SLURP-1, compared with control (two-electrode voltage clamp, oocytes; n=4) worked out at 1210%.
